According to paper PMC9571070, “Three-Fluorophore FRET Enables the Analysis of Ternary Protein Association in Living Plant Cells” (Plants, 2022):

Target: T1, Receptor-Like Protein 44 fused to monomeric Turquoise 2 (RLP44-mTRQ2) (UniProt Q9M2Y3 25-274)
T1 construct: Receptor-Like Protein 44 (RLP44); Plasma membrane protein with its own signal peptide; also called RLP44-TRQ2; source: N. benthamiana epidermal leaf cells, transiently transformed, in living cells; not shown: mTRQ2, C-terminal, kept
T1 sequence (looked up): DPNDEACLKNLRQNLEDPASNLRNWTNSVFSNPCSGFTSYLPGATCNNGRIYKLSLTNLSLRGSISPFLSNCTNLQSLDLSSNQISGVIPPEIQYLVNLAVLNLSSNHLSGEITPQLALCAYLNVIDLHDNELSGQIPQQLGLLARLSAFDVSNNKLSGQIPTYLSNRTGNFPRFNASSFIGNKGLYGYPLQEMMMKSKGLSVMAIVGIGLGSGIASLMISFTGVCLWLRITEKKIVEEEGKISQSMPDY
Experiment: FRET or BRET; FRET-FLIM, fluorescence lifetime of the donor RLP44-mTRQ2 (440 nm pulsed laser, TCSPC), two fusion proteins co-expressed, plasma membrane of living N. benthamiana epidermal leaf cells
Settings: partners not purified

B1: BRI1 Associated Kinase 1 fused to monomeric red fluorescence protein 1 (BAK1-mRFP) (receptor, UniProt Q94F62 26-615, looked up)
chain: NAEGDALSALKNSLADPNKVLQSWDATLVTPCTWFHVTCNSDNSVTRVDLGNANLSGQLVMQLGQLPNLQYLELYSNNITGTIPEQLGNLTELVSLDLYLNNLSGPIPSTLGRLKKLRFLRLNNNSLSGEIPRSLTAVLTLQVLDLSNNPLTGDIPVNGSFSLFTPISFANTKLTPLPASPPPPISPTPPSPAGSNRITGAIAGGVAAGAALLFAVPAIALAWWRRKKPQDHFFDVPAEEDPEVHLGQLKRFSLRELQVASDNFSNKNILGRGGFGKVYKGRLADGTLVAVKRLKEERTQGGELQFQTEVEMISMAVHRNLLRLRGFCMTPTERLLVYPYMANGSVASCLRERPESQPPLDWPKRQRIALGSARGLAYLHDHCDPKIIHRDVKAANILLDEEFEAVVGDFGLAKLMDYKDTHVTTAVRGTIGHIAPEYLSTGKSSEKTDVFGYGVMLLELITGQRAFDLARLANDDDVMLLDWVKGLLKEKKLEALVDVDLQGNYKDEEVEQLIQVALLCTQSSPMERPKMSEVVRMLEGDGLAERWEEWQKEEMFRQDFNYPTHHPAVSGWIIGDSTSQIENEYPSGPR
notes: BRI1 Associated Kinase 1 (BAK1), co-receptor kinase; also called BAK1-RFP; source: N. benthamiana epidermal leaf cells, transiently transformed, in living cells; not shown: mRFP, C-terminal, kept
fluorescence lifetime of the donor RLP44-mTRQ2 (donor alone about 3.99 ns): 3.54 ns
